# From publication PMC13061415 (2026)
# B1: muskelin CTLH-CRA domain (205–735 Δ248–625) [rat] / Twa1 CTLH-CRA domain (58-190), wild type [mouse] (parent complex)
# chain 1: EHPMLTDMHDKLVLKGDFDACEELIEKAVNDGLFNQYISQQEYPSKDYLLRHCKYLIRKHRFEEKAQMDPLSALKYLQNDLYITVDHSDPEETKEFQLLASALFKSGSDFTALGFSDVDHTYAQRTQLFDTLVNFFPDSMTPPKGNLVDLITL
# chain 2: SVDLETLDERIKIREMILKGQIQEAIALINSLHPELLDTNRYLYFHLQQQHLIELIRQRETEAALEFAQTQLAEQGEESRECLTEMERTLALLAFDSPEESPFGDLLHMMQRQKVWSEVNQAVLDYENRESTP
# Variants of: B1
# Assay: ITC; 160 µM muskelin + 16 µM Twa1 mutants; read off a plot
row,dG [kcal/mol],Variant
1,~-8.8,"chain 2 A68G, chain 2 Q69R, chain 2 A73Q, chain 2 L83K, chain 2 E87K, chain 2 L90F, chain 2 F95Y, chain 2 F103V"
